# Data taken from US20220218001A1, “REDOX ENZYMES IN ANIMAL FEED COMPOSITIONS” (Novozymes A/S, priority 2019, published 2022).
# Where a chain is given by its changes, count along the chain named. Read-outs that look alike come from different tables or passages of the source.
# B1: SEQ ID NO 18: superoxide dismutase from Cladobotryum sp. (protein)
# chain: MARQGLFLASLLIFPFASCAASEDPTGSKPQFASIPDSQQALLGSFSSTMSVSTFSLPALPYAYDALEPSISAQIMELHHSKHHQTYVNNLNNALKSYFVAISANDVPSQIALQAAVKFNGGGHINHSLFWENLCPATSPDADPQSAPTLAAEISKTWGSLEGFKDAMSKALLGLQGSGWGWLVKDGRALRIVTTKDQDPVVGGEVPIFGIDMWEHAYYLQYLNGKAAYVENIWKVINWKTAERRFIGDRDDAFKILKASI
# modifications: Cladobotryum sp
# B2: SEQ ID NO 35: superoxide dismutase; donor Trichoderma rossicum in b755, Trichoderma sp-44174 in b566 (protein)
# chain: MRASGILTVLSLAVSSCVAEKDAPIVTGNPHSVEYKATLPKKPFFSNAALVGNVKGYVSAVAAPSGKGVRFSVQFENFPKSGGPFMYHIHEEPATNGNCTSTLAHLDPYHRGETPACDSSKPETCQVGDLSGKYGKITSDPFVAEYFDLYTSLQPGSPAFFGNRSIVVHYANKTRLTCANFAKLPVSDTATKAHTTTSAHHTVIHGPAASGGRHNTTSSHNITGPHYTTGSHHTTDVSPTGSLNPTGIVTAPGSPTTPATFTTVAAGGSASATSSIVPFPGAASGNRVSLALLSGVVAAMFFSL
# modifications: Trichoderma sp-44174
# notes: superoxide dismutase; donor Trichoderma rossicum, Trichoderma sp-44174 in b566
# B3: SEQ ID NO 37: superoxide dismutase; donor Trichoderma sp-54723 in b755, Trichoderma rossicum in b566 (protein, listed as Trichoderma rossicum)
# chain: B2 chain with T8A, S16G, V18I
# B4: Catalase: Catalase fed alone in the piglet trial of FIG. 17 (protein)
# chain: MRHFWLLPAVAGIAGAQCPYLSGEMSFTQEQDNAGDTIEVTEQTIDNTLYVNDTGSYMTTDFGTPISDQYSLKAGRRGPTLLEDFIFRQKLQRFDHERVPERVVHARGAGAYGTFKSYADWSNVTAADFLSANEKETPMFCRFSTVVGFRGSVDTARDVHGHACRFYTDEGNYDIVGINFAPFFIQDAIQFPDLVHAIKPMPNNEIPQAATAHTSAWDFFSQQSTALHSALWLMSGNGIPRSFRHMNGYGVHSFRFVAANGTSKVVRYRWKSQQGVASLVWEEAQAAAGKNSDYHRQDLYNAIANGHYPKYELQAQIMDEADMLRFGFDLLDPTKLVPEEVVPYTPLGMMELNANPTNYFAEVEQAGFQPGHVVPGIDFTDDPLLQGRLFSYLDTQLTRHGGPNFEQIPVNRPRKPVHNNNRDGFGQQQIPTNNWAYTPNTMSNGYPMQANQTHGHGFFTSPYRYASGHLIREPSPTFHDHWSQPAMFWNSLIPAEQQMVVNAIVFENSKVNSPHVRKNVVNQLNMVNNNLAVRVARGLGLDEPSPNPTYYTSNKTSNVGTFGKPLLSIEGLQVGFLASNSHPESIKQGQAMAAQFSAAGVDLNIVTEAYADGVNTTYALSDAIDFDALIIADGVQSLFASPSLANQMNSTATSTLYPPARPYQILVDSFRYGKPVAAVGSGSAALKNAGIDTSRSGVYTGSSETTENIAKEVLKGLYTFRFVDRFALDE
# modifications: Aspergillus niger; mat_peptide (1)..(740)
# B5: S5639 from Sigma Mn-SOD Escherichia coli: commercially available bacterial (from E. coli) Mn-SOD (protein, UniProt P00448 2-206, looked up)
# Superoxide dismutase [Mn]: SYTLPSLPYAYDALEPHFDKQTMEIHHTKHHQTYVNNANAALESLPEFANLPVEELITKLDQLPADKKTVLRNNAGGHANHSLFWKGLKKGTTLQGDLKAAIERDFGSVDNFKAEFEKAAASRFGSGWAWLVLKGDKLAVVSTANQDSPLMGEAISGASGFPIMGLDVWEHAYYLKFQNRRPDYIKEFWNVVNWDEAAARFAAKK
# What was measured:
# [1] = Growth performance of early weaned piglets fed SOD and CAT; type: in vivo
# Description: The effect of antioxidant enzymes (SOD and CAT) alone at different doses and in combination on the growth performance of early weaned piglets was evaluated in a trial run. A total of eight treatments were tested during the study: 6 test groups: SOD (Product A, SEQ ID No. 1 at 1250 and 2500 U/kg), CAT (Product B, SEQ ID NO 7 and Product C, […]; […]); were compared against a Positive Control feed (fed with Avilamycin at 90.7 g/lb) and a Negative Control (standard ration). Each of treatments contained 12 replicates per treatment randomly assigned and containing 5 male piglets per replicate for a total number of 480 animals on study. Piglets were randomly assigned to treatments on Trial Day 0 (post-weaning at 21 days of age). At 42 days of age, live performance (growth weight gain and feed conversion) was determined. All rations were formulated with an increase of approximately 5-6% additional crude protein above normal commercial levels. Blood samples were collected at day 0, 14 and 42 to evaluate oxidative stress parameters at DSM. Gut tissue samples at the duodenum and ileum to evaluate gene expression linked to oxidative stress, and intestinal content (ileum and caecum), to study the microbiome population, were collected from 12 animals at the beginning of the trial (baseline) and one animal per pen (12 piglets×8 treatments) at day 14 and at day 42.
# The commercial-simulated test model employed in this study used piglets reared under a normal swine industry Starter diet (Trial Day 0-21) and Grower diet (Trial Day 21-42), reared on slatted floors. Ration formulations were conducted via computer-generated linear regression program that simulates formulations conducted during practical swine production techniques. Treatments were tested in male piglets. Piglets were continuously fed their experimental diets from time of placement on Trial Day 0 to Trial Day 42.
# Piglets were weighed and randomly placed into each pen on Trial Day 0 and fed their respective diets. Each pen had sufficient floor density, feeder and waterer space for each grow-out area for the piglets. Following 42 days of grow-out, piglets were weighed, feed consumption determined, and feed conversion (feed consumed/[…]) calculated.
# A total of 500 male piglets (a sufficient number to ensure availability of at least 480 healthy male piglets for the conduct of the study) were obtained from a swine breeder on Trial Day 0 (upon weaning, when the piglets were 21 days of age). Piglets were fed their respective treatment feed ad libitum from Trial Day 0 to Trial Day 42.
# Each experimental test unit of swine pens was housed in separated pens, located in a room containing forced air heaters with a cross-house ventilation system. Piglets were placed in a 6 ft×6 ft pen floor area with a minimum of 9.0 ft^2 per piglet (without feeder and waterer space) provided. At least two nipple drinkers per pen (via well water) provided water. Piglets were observed daily for overall health, behavior and/or evidence of toxicity, and environmental conditions. Temperature in the test facility was checked daily. Drinking water and feed were confirmed to be provided ad libitum. No type of medication (other than test material) was administered during the entire feeding period.
# Live performance body weights and feed intakes were collected on Days 0, 14, 21, and 42 during the growing period. Weight gain, feed intake, feed:gain ratio (feed efficiency) were calculated for 0-42 days of age between weaning and Trial Day 42. Differences between piglets fed control and test groups were statistically evaluated at P<0.05 in a typical ANOVA analysis of variance test model, employing Treatment×Replicate RCB (Randomized Complete Block). Control group was considered to be the following: Treatment 2, containing Avilamycin at 90.7 g/lb.
# Diets were fed in two feed phases: Starter diet (0-21 days of age) and Grower diet (21-42 days of age). All diets were offered ad libitum, without restriction. […]
# pepsin [2] = biological target: T1, pepsin (Sus scrofa, UniProt P00791); test: Gastric stability of superoxide dismutases (method of Example 10, gastric treatment with pepsin); type: in vitro ADME
# T1 construct: purchased Sigma P7000; host or cells: porcine gastric mucosa (natural source)
# T1 sequence (P00791 60-385): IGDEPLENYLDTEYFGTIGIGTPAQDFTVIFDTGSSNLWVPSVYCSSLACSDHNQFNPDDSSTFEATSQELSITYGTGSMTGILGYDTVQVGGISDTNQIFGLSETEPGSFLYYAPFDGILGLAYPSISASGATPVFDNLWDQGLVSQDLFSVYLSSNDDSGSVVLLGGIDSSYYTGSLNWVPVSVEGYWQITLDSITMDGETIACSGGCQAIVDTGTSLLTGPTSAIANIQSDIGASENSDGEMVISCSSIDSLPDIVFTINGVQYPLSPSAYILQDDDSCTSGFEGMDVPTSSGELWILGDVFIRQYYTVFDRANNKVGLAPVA
# [3] = Thermal stability of superoxide dismutases at different pH, Tm unfolding temperature (method of Example 11); type: physicochemical
# Description: Tm: The term Tm, as used in the Examples refers to the temperature at which 50% of the protein molecules are unfolded and 50% of the protein molecules are folded.
# Test were performed on the super oxide dismutases of the invention to measure the temperature at different acidity/alkalinity to determine the temperature at which the polypeptide unfolds and denatures. […] A further embodiment is directed to an animal feed additive comprising a fungal superoxide dismutase thermally stable at pH 7, when measured according to the method described in Example 11, such that protein unfolding (Tm) is 45° C. or more.
# pepsin [4] = biological target: T1, pepsin; test: Gastric stability of superoxide dismutases (method of Example 10, gastric treatment with pepsin); type: in vitro ADME; remark: listed apart in the source
# Description: retains only 26% of its activity upon gastric treatment in the presence of pepsin.
# Two commercial SODs were tested as references: SOD-Mn, from E. coli Sigma S5639 with a activity of 10240 U/mg EP and only 26% activity left after gastric press for 30 min; and SOD-Cu/Zn from Bovine expressed in E. coli Sigma S9697 with activity of 6108 U/mg EP and only 35% activity left after gastric press for 30 min.
# [5] = Superoxide dismutase activity (method of Example 9, pH 7.8); type: biochemical; settings: SOD activity
# [6] = Piglet trial, growth performance d0-42; type: in vivo; settings: piglets, days 0-42
# From the text: FIG. 17: illustrates the Conversion Ratio (FCR) in piglets from days 0-42. There was significant difference observed in growth performance between positive and negative control.
molecule,measurement,setting,value
"COC[C@H]1O[C@@H](OC2OC[C@@H]3O[C@]4(O[C@H]3[C@H]2OC(=O)C(C)C)O[C@H](C)[C@@](O)(C(C)=O)[C@@H]2OCO[C@H]24)[C@@H](OC)[C@@H](O)[C@@H]1O[C@@H]1O[C@H](C)[C@H](OC)[C@H](O[C@H]2C[C@@]3(C)OC4(C[C@@H](O)[C@H](O[C@H]5C[C@@H](O)[C@H](OC(=O)c6c(C)c(Cl)c(O)c(Cl)c6OC)[C@@H](C)O5)[C@@H](C)O4)O[C@@H]3[C@@H](C)O2)[C@H]1O (stereo partly drawn) [T2, Avilamycin]",feed conversion (FCR),"[1]; d0-d42, vs Negative Control, SOD+CAT 400:100 U/kg",improved
same,Average Body Wt. Gain (kg) Day 0-14,"[1]; piglets, day 0-14",3.720 kg
same,Feed Conversion Corrected Day 0-14,"[1]; piglets, day 0-14",1.215
same,Feed Intake (kg/pig) Day 0-14,"[1]; piglets, day 0-14",4.52 kg/pig
same,Mortality % Day 0-14,"[1]; piglets, day 0-14",0.000%
same,Average Body Wt. (kg) Day 14,"[1]; piglets, day 14",9.215 kg
same,Body Weight Coefficient of Variation (Day 14),"[1]; piglets, day 14",4.700
S9697 Bovine Cu/Zn SOD SIGMA: commercially available superoxide dismutase from bovine erythrocytes and expressed in E. coli of sequence A,"Gastric stability after 15 min (remaining activity, approx, %)",pepsin [2]; 0.25 h,35%
same,activity retained at 50° C.,"[3]; 50° C., method of Example 11",very little
same,Tm (unfolding temperature),[3]; pH 3,50.8 °C
same,Tm (unfolding temperature),[3]; pH 4,59.3 °C
same,Tm (unfolding temperature),[3]; pH 5,63.9 °C
same,Tm (unfolding temperature),[3]; pH 6,66.2 °C
same,Tm (unfolding temperature),[3]; pH 7,65.2 °C
same,Tm (unfolding temperature),[3]; pH 8,63.1 °C
same,Tm (unfolding temperature),[3]; pH 9,61.0 °C
same,Tm (unfolding temperature),[3]; pH 10,57.0 °C
same,activity left after gastric press for 30 min,pepsin [4],35%
same,activity retained upon gastric treatment in the presence of pepsin,pepsin [4],26%
same,loss of activity under gastric stability studies,pepsin [4],65%
same,Relative Activity Unit (U/mg EP),[5],6108 U/mg EP
B1,activity retained under gastric stability studies,pepsin [4],at least 40%
B2,activity retained under gastric stability studies,pepsin [4],at least 40%
same,Relative Activity Unit (U/mg EP),[5],~3000 U/mg EP
B3,activity retained under gastric stability studies,pepsin [4],at least 40%
B4,Feed Conversion Ratio (FCR),[6],significantly improved the FCR
B5,"Gastric stability after 15 min (remaining activity, approx, %)","pepsin [2]; after 15 min, method of Example 10",26%
same,loss of activity under gastric stability studies,pepsin [4],57%
same,activity left after gastric press for 30 min,pepsin [4]; 30 min,26%
same,Relative Activity Unit (U/mg EP),[5],10240 U/mg EP
